From patent US20170015742A1 (published 2017) come the findings set out here.

In test [1] the target is recombinant human VEGF165 (human, UniProt P15692 207-395). Briefly: cell-based or functional assay.
The target in test [2] is recombinant human PDGF-BB (human, UniProt P01127 82-190). Briefly: cell-based or functional assay.
Sequence of recombinant human PDGF-BB (P01127 82-190 limits assumed): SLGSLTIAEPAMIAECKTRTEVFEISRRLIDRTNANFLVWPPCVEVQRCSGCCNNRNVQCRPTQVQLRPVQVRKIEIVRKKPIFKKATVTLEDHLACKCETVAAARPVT

Sequence of recombinant human VEGF165 (P15692 other isoform, or with tags, fused parts or gaps limits assumed): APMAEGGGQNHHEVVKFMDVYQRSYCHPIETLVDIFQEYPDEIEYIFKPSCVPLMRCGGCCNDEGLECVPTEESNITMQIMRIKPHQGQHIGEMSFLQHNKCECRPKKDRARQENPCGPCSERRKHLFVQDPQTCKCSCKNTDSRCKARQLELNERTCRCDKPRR

B1: 3E2.1_GS_CL-34565 (PR-1613189) (bispecific antibody, human IgG1, kappa, L234A L235A)
heavy: EVQLVQSGAEVKKPGSSVKVSCKASGYTFTESYMYWVKQAPGQGLELIGRIDPEDGSTDYVEKFKNKATLTADKSTSTAYMELSSLRSEDTAVYFCARFGARSYFYPMDAWGQGTTVTVSSGGGGSGGGGSEVQLVQSGSELKKPGASVKVSCKASGYTFTDYGMYWVRQAPGQGLEWMGWIDTETGDPTYADDFKGRFVFSLDTSVSTAYLQISSLKAEDTAVYYCARTNYYYRNYMFYFDYWGQGTMVTVSSASTKGPSVFPLAPSSKSTSGGTAALGCLVKDYFPEPVTVSWNSGALTSGVHTFPAVLQSSGLYSLSSVVTVPSSSLGTQTYICNVNHKPSNTKVDKKVEPKSCDKTHTCPPCPAPEAAGGPSVFLFPPKPKDTLMISRTPEVTCVVVDVSHEDPEVKFNWYVDGVEVHNAKTKPREEQYNSTYRVVSVLTVLHQDWLNGKEYKCKVSNKALPAPIEKTISKAKGQPREPQVYTLPPSREEMTKNQVSLTCLVKGFYPSDIAVEWESNGQPENNYKTTPPVLDSDGSFFLYSKLTVDKSRWQQGNVFSCSVMHEALHNAYTQKSLSLSPGK
light: ETVLTQSPATLSLSPGERATLSCRASESVSTLMHWYQQKPGQQPRLLIYGASNLESGVPARFSGSGSGTDFTLTISSLEPEDFAVYFCQQSWNDPWTFGGGTKVEIKGGSGGGGSGGEIVLTQSPATLSLSPGERATLFCRASQSVSNHMHWYQQKPGQAPRLLIYGASILESGVPARFSGSGSGTDFTLTISSLEPEDFAVYYCQQSWYDPITFGQGTKLEIKRTVAAPSVFIFPPSDEQLKSGTASVVCLLNNFYPREAKVQWKVDNALQSGNSQESVTEQDSKDSTYSLSSTLTLSKADYEKHKVYACEVTHQGLSSPVTKSFNRGEC
For the molecule B1, the “Potency IC50 (nM), HMVEC-d hVEGF165 (proliferation)” value (“Potency IC50 (nM), HMVEC-d hVEGF165” below) in test [1] worked out at 0.063 nM. For the same molecule, the “Potency IC50 (nM), NIH-3T3 hPDGF-BB (proliferation)” value (“Potency IC50 (nM), NIH-3T3 hPDGF-BB” below) in test [2] turned out to be 1.16 nM.

B2: CL-33675_GS_CL-34565 (PR-1613186) (bispecific antibody, human IgG1, kappa, L234A L235A)
heavy: EVTLRESGPALVKPTQTLTLTCTFSGFSLSTYGMGVGWIRQPPGKALEWLANIWWDDDKYYNPSLKNRLTISKDTSKNQVVLTMTNMDPVDTATYYCARIESSGPKYSFDYWGQGTMVTVSSGGGGSGGGGSEVQLVQSGSELKKPGASVKVSCKASGYTFTDYGMYWVRQAPGQGLEWMGWIDTETGDPTYADDFKGRFVFSLDTSVSTAYLQISSLKAEDTAVYYCARTNYYYRNYMFYFDYWGQGTMVTVSSASTKGPSVFPLAPSSKSTSGGTAALGCLVKDYFPEPVTVSWNSGALTSGVHTFPAVLQSSGLYSLSSVVTVPSSSLGTQTYICNVNHKPSNTKVDKKVEPKSCDKTHTCPPCPAPEAAGGPSVFLFPPKPKDTLMISRTPEVTCVVVDVSHEDPEVKFNWYVDGVEVHNAKTKPREEQYNSTYRVVSVLTVLHQDWLNGKEYKCKVSNKALPAPIEKTISKAKGQPREPQVYTLPPSREEMTKNQVSLTCLVKGFYPSDIAVEWESNGQPENNYKTTPPVLDSDGSFFLYSKLTVDKSRWQQGNVFSCSVMHEALHNAYTQKSLSLSPGK
light: EIVLTQSPGTLSLSPGERATLSCRASSGSIWYSFVSWYQQKPGQAPRLLIYADDQRASGIPDRFSGSGSGTDFTLTISRLEPEDFAVYYCQSYGINIDVVFGGGTKVEIKGGSGGGGSGGEIVLTQSPATLSLSPGERATLFCRASQSVSNHMHWYQQKPGQAPRLLIYGASILESGVPARFSGSGSGTDFTLTISSLEPEDFAVYYCQQSWYDPITFGQGTKLEIKRTVAAPSVFIFPPSDEQLKSGTASVVCLLNNFYPREAKVQWKVDNALQSGNSQESVTEQDSKDSTYSLSSTLTLSKADYEKHKVYACEVTHQGLSSPVTKSFNRGEC
With B2, the “Potency IC50 (nM), HMVEC-d hVEGF165” value in test [1] worked out at 0.05 nM. In addition, the “Potency IC50 (nM), NIH-3T3 hPDGF-BB” value in test [2] came to 0.043 nM.

B3: 9E8.4_GS_CL-34565 (PR-1613187) (bispecific antibody, human IgG1, kappa, L234A L235A)
heavy: EVTLRESGPALVKPTQTLTLTCTFSGFSLSTYGMGVGWIRQPPGKALEWLANIWWDDDKYYNPSLKNRLTISKDTSKNQVVLTMTNMDPVDTATYYCARIESIGTTYSFDYWGQGTMVTVSSGGGGSGGGGSEVQLVQSGSELKKPGASVKVSCKASGYTFTDYGMYWVRQAPGQGLEWMGWIDTETGDPTYADDFKGRFVFSLDTSVSTAYLQISSLKAEDTAVYYCARTNYYYRNYMFYFDYWGQGTMVTVSSASTKGPSVFPLAPSSKSTSGGTAALGCLVKDYFPEPVTVSWNSGALTSGVHTFPAVLQSSGLYSLSSVVTVPSSSLGTQTYICNVNHKPSNTKVDKKVEPKSCDKTHTCPPCPAPEAAGGPSVFLFPPKPKDTLMISRTPEVTCVVVDVSHEDPEVKFNWYVDGVEVHNAKTKPREEQYNSTYRVVSVLTVLHQDWLNGKEYKCKVSNKALPAPIEKTISKAKGQPREPQVYTLPPSREEMTKNQVSLTCLVKGFYPSDIAVEWESNGQPENNYKTTPPVLDSDGSFFLYSKLTVDKSRWQQGNVFSCSVMHEALHNAYTQKSLSLSPGK
light: EFVLTQSPGTLSLSPGERATLSCERSSGDIGDSYVSWYQQKPGQAPRLVIYADDQRPSGIPDRFSGSGSGTDFTLTISRLEPEDFAVYYCQSYDINIDIVFGGGTKVEIKGGSGGGGSGGEIVLTQSPATLSLSPGERATLFCRASQSVSNHMHWYQQKPGQAPRLLIYGASILESGVPARFSGSGSGTDFTLTISSLEPEDFAVYYCQQSWYDPITFGQGTKLEIKRTVAAPSVFIFPPSDEQLKSGTASVVCLLNNFYPREAKVQWKVDNALQSGNSQESVTEQDSKDSTYSLSSTLTLSKADYEKHKVYACEVTHQGLSSPVTKSFNRGEC
B3: the “Potency IC50 (nM), HMVEC-d hVEGF165” value in test [1] came to 0.058 nM. Also, the “Potency IC50 (nM), NIH-3T3 hPDGF-BB” value in test [2] worked out at 0.134 nM.

B4: 9E8.4_GS_4G8.5 (PR-1613188) (bispecific antibody, human IgG1, kappa, L234A L235A)
heavy: EVTLRESGPALVKPTQTLTLTCTFSGFSLSTYGMGVGWIRQPPGKALEWLANIWWDDDKYYNPSLKNRLTISKDTSKNQVVLTMTNMDPVDTATYYCARIESIGTTYSFDYWGQGTMVTVSSGGGGSGGGGSEIQLVQSGSELKKPGASVKVSCKASGYTFTNYGMYWVRQAPGQGLEYMGWINTETGKPTYADDFKGRFVFSLDTSVSTAYLQISSLKAEDTAVYFCARTNYYYRSYIFYFDYWGQGTMVTVSSASTKGPSVFPLAPSSKSTSGGTAALGCLVKDYFPEPVTVSWNSGALTSGVHTFPAVLQSSGLYSLSSVVTVPSSSLGTQTYICNVNHKPSNTKVDKKVEPKSCDKTHTCPPCPAPEAAGGPSVFLFPPKPKDTLMISRTPEVTCVVVDVSHEDPEVKFNWYVDGVEVHNAKTKPREEQYNSTYRVVSVLTVLHQDWLNGKEYKCKVSNKALPAPIEKTISKAKGQPREPQVYTLPPSREEMTKNQVSLTCLVKGFYPSDIAVEWESNGQPENNYKTTPPVLDSDGSFFLYSKLTVDKSRWQQGNVFSCSVMHEALHNAYTQKSLSLSPGK
light: EFVLTQSPGTLSLSPGERATLSCERSSGDIGDSYVSWYQQKPGQAPRLVIYADDQRPSGIPDRFSGSGSGTDFTLTISRLEPEDFAVYYCQSYDINIDIVFGGGTKVEIKGGSGGGGSGGATQLTQSPSLSASVGDRVTITCRASESVSTHMHWYQQKPGKQPKLLIYGASNLESGVPSRFSGSGSGTDFTLTISSLQPEDFATYFCQQSWNDPFTFGQGTKLEIKRTVAAPSVFIFPPSDEQLKSGTASVVCLLNNFYPREAKVQWKVDNALQSGNSQESVTEQDSKDSTYSLSSTLTLSKADYEKHKVYACEVTHQGLSSPVTKSFNRGEC
As for B4, the “Potency IC50 (nM), HMVEC-d hVEGF165” value in test [1] stood at 0.354 nM. For the same molecule, the “Potency IC50 (nM), NIH-3T3 hPDGF-BB” value in test [2] worked out at 0.108 nM.

B5: CL-34565_GS_3E2.1 (PR-1613185) (bispecific antibody, human IgG1, kappa, L234A L235A)
heavy: EVQLVQSGSELKKPGASVKVSCKASGYTFTDYGMYWVRQAPGQGLEWMGWIDTETGDPTYADDFKGRFVFSLDTSVSTAYLQISSLKAEDTAVYYCARTNYYYRNYMFYFDYWGQGTMVTVSSGGGGSGGGGSEVQLVQSGAEVKKPGSSVKVSCKASGYTFTESYMYWVKQAPGQGLELIGRIDPEDGSTDYVEKFKNKATLTADKSTSTAYMELSSLRSEDTAVYFCARFGARSYFYPMDAWGQGTTVTVSSASTKGPSVFPLAPSSKSTSGGTAALGCLVKDYFPEPVTVSWNSGALTSGVHTFPAVLQSSGLYSLSSVVTVPSSSLGTQTYICNVNHKPSNTKVDKKVEPKSCDKTHTCPPCPAPEAAGGPSVFLFPPKPKDTLMISRTPEVTCVVVDVSHEDPEVKFNWYVDGVEVHNAKTKPREEQYNSTYRVVSVLTVLHQDWLNGKEYKCKVSNKALPAPIEKTISKAKGQPREPQVYTLPPSREEMTKNQVSLTCLVKGFYPSDIAVEWESNGQPENNYKTTPPVLDSDGSFFLYSKLTVDKSRWQQGNVFSCSVMHEALHNAYTQKSLSLSPGK
light: EIVLTQSPATLSLSPGERATLFCRASQSVSNHMHWYQQKPGQAPRLLIYGASILESGVPARFSGSGSGTDFTLTISSLEPEDFAVYYCQQSWYDPITFGQGTKLEIKGGSGGGGSGGETVLTQSPATLSLSPGERATLSCRASESVSTLMHWYQQKPGQQPRLLIYGASNLESGVPARFSGSGSGTDFTLTISSLEPEDFAVYFCQQSWNDPWTFGGGTKVEIKRTVAAPSVFIFPPSDEQLKSGTASVVCLLNNFYPREAKVQWKVDNALQSGNSQESVTEQDSKDSTYSLSSTLTLSKADYEKHKVYACEVTHQGLSSPVTKSFNRGEC
Consider B5, for which, in test [1], the “Potency IC50 (nM), HMVEC-d hVEGF165” value amounted to 0.053 nM. Moreover, in test [2], the “Potency IC50 (nM), NIH-3T3 hPDGF-BB” value amounted to 6 nM.

B6: 3E2.1_GS_1E3.4 (PR-1613190) (bispecific antibody, human IgG1, kappa, L234A L235A)
heavy: EVQLVQSGAEVKKPGSSVKVSCKASGYTFTESYMYWVKQAPGQGLELIGRIDPEDGSTDYVEKFKNKATLTADKSTSTAYMELSSLRSEDTAVYFCARFGARSYFYPMDAWGQGTTVTVSSGGGGSGGGGSEIQLVQSGSELKKPGASVKVSCKASGYPFTNSGMYWVKQAPGQGLEYMGWINTEAGKPTYADDFKGRFVFSLDTSVSTAYLQISSLKAEDTAVYFCARWGYISDNSYGWFDYWGQGTLVTVSSASTKGPSVFPLAPSSKSTSGGTAALGCLVKDYFPEPVTVSWNSGALTSGVHTFPAVLQSSGLYSLSSVVTVPSSSLGTQTYICNVNHKPSNTKVDKKVEPKSCDKTHTCPPCPAPEAAGGPSVFLFPPKPKDTLMISRTPEVTCVVVDVSHEDPEVKFNWYVDGVEVHNAKTKPREEQYNSTYRVVSVLTVLHQDWLNGKEYKCKVSNKALPAPIEKTISKAKGQPREPQVYTLPPSREEMTKNQVSLTCLVKGFYPSDIAVEWESNGQPENNYKTTPPVLDSDGSFFLYSKLTVDKSRWQQGNVFSCSVMHEALHNAYTQKSLSLSPGK
light: ETVLTQSPATLSLSPGERATLSCRASESVSTLMHWYQQKPGQQPRLLIYGASNLESGVPARFSGSGSGTDFTLTISSLEPEDFAVYFCQQSWNDPWTFGGGTKVEIKGGSGGGGSGGATQLTQSPSSLSASVGDRVTISCRASEGVYSYMHWYQQKPGKQPKLLIYKASNLASGVPSRFSGSGSGTDFTLTISSLQPEDFATYFCHQNWNDPLTFGQGTKLEIKRTVAAPSVFIFPPSDEQLKSGTASVVCLLNNFYPREAKVQWKVDNALQSGNSQESVTEQDSKDSTYSLSSTLTLSKADYEKHKVYACEVTHQGLSSPVTKSFNRGEC
For the molecule B6, the “Potency IC50 (nM), HMVEC-d hVEGF165” value in test [1] was 0.709 nM. Moreover, the “Potency IC50 (nM), NIH-3T3 hPDGF-BB” value in test [2] amounted to 0.896 nM.
